Measurements published in publication PMC12704277.

Legend:
[1] = molecular target: NCP-3′linker (nucleosome core particle with H3K9me3 and a single hemimethylated CpG site in the 3′-linker DNA) (human) (UniProt P04908); assay: thermal stability assay (SYPRO Orange); 0.2 mg/ml protein; 20 mM Tris–HCl pH 7.5, 150 mM NaCl, 1 mM DTT; heated from 25 °C to 90 °C
[2] = molecular target: NCP-601 (nucleosome core particle with H3K9me3 and a single hemimethylated CpG site within the 3′-Widom 601 sequence) (human) (UniProt P04908); assay: as above
[3] = molecular target: NCP-5′linker (nucleosome core particle with H3K9me3 and a single hemimethylated CpG site in the 5′-linker DNA) (human) (UniProt P04908); assay: as above
[4] = molecular target: NCP-3′linker (nucleosome core particle with H3K9me3 and a single hemimethylated CpG site in the 3′-linker DNA) (human) (UniProt P04908); assay: mass photometry; UHRF1 and NCP mixed at a UHRF1–NCP ratio of 1:4, on ice 30 min; final 25 nM in 20 mM Tris–HCl pH 7.0, 150 mM NaCl
[5] = molecular target: NCP-601 (nucleosome core particle with H3K9me3 and a single hemimethylated CpG site within the 3′-Widom 601 sequence) (human) (UniProt P04908); assay: as above
[6] = molecular target: NCP-5′linker (nucleosome core particle with H3K9me3 and a single hemimethylated CpG site in the 5′-linker DNA) (human) (UniProt P04908); assay: as above

## UHRF1 (ubiquitin-like with plant homeodomain and RING finger domain 1), full-length human, WT (from UniProt Q96T88 1-793) (enzyme)
[1]
  Tm (denaturation temperature of UHRF1 bound to the NCP): 44.8 °C
[2]
  Tm (denaturation temperature of UHRF1 bound to the NCP): 42.8 °C
[3]
  Tm (denaturation temperature of UHRF1 bound to the NCP): 44.2 °C
[4]
  stoichiometry N: 1
[5]
  stoichiometry N: 1
[6]
  stoichiometry N: 1
